Measured values: patent publication US20040005672A1, “Heterologous production of polyketides” (priority 2002, published 2004)
Entries after “also recorded” stand apart in the source; their conditions may differ. One block for each molecule: values may come before it.

Legend:
[1] = Stability of acyl-CoAs in TCA and mutase assay buffer (HPLC); format: physicochemical; conditions: five minutes under the mutase assay conditions, 30° C
Protocol: To test whether acyl-CoAs degrade in TCA, the following tests were conducted. The CoA mix consisted of 1.6 mM each of malonyl-, methylmalonyl-, succinyl-, acetyl-, and propionyl-CoA, plus 0.5 mM CoA. An aliquot (10 μL) of this mix was added to 100 μL 10% TCA, 50 μL were immediately injected to the HPLC for CoA analysis, and the remainder was promptly frozen on dry ice. The frozen portion was then thawed and loaded immediately to the HPLC. Again, 10 μL of the CoA mix were added to 100 μL 10% TCA, 50 μL were left on ice for 15 minutes and then injected to the HPLC, the remainder was left at 4° C. overnight and injected to the HPLC the next morning. The area under each CoA peak was noted. This same procedure was followed but using a mixture of TCA and buffer A from the mutase assay.
The CoA analysis described here is carried out on cells which are lysed in 10% TCA. […] Thus, the CoAs are stable in TCA and in the mutase assay buffer after the cells are lysed or after the assays are completed, and prior to HPLC analysis.
Although the CoAs are stable in TCA and buffer at 4° C., they degraded at 30° C., the temperature at which the mutase assay was performed. In five minutes under the assay conditions, about 4% of the methylmalonyl-CoA hydrolyzed to CoA. […] Thus, the mutase assay is suboptimal for extremely quantitative results.

[2] = Spontaneous chemical epimerization between (R)- and (S)-mm-CoA; format: physicochemical; conditions: in 15 minutes
[3] = system: DEBS or DEBS1+TE; conditions: cited from earlier work
[4] = Methylmalonyl-CoA mutase assay in crude cell extracts (HPLC, conversion of methylmalonyl-CoA to succinyl-CoA); format: biochemical; conditions: cells grown without hydroxocobalamin; extracts not supplemented with B12
Protocol: The mutase assay was performed as follows. All operations were performed in the dark or under a red safelight. The pellet from 25 mL of culture was thawed, washed in buffer C (50 mM potassium phosphate pH 7.4, 5 mM EDTA, 10% glycerol), and resuspended in 0.5 mL of buffer C containing protease inhibitors (1 tablet per 10 mL of buffer). Following sonication on ice, the extract was clarified by centrifugation at 4° C. for 10 minutes at maximum speed in an Eppendorf microfuge; the supernatent was assayed. Enzyme assays contained, in a final volume of 100 μL, 0.2 mM (2R,2S)-methylmalonyl-CoA, mutase extract, and buffer C containing protease inhibitors. Reactions for assays with vitamin B12 were as above but contained 0.01 mM vitamin B12, in which case the mutase extract was incubated with the vitamin B12 in a total volume of 75 μL for 5 minutes at 30° C. prior to initiation of reaction with methylmalonyl-CoA. After the desired length of incubation at 30° C., the reaction was stopped by the addition of 50 μL of 10% trichloroacetic acid (TCA) and placed on ice for approximately 10 minutes. […] An aliquot (100 μL) of the supernatant was injected onto the HPLC to quantify conversion of methylmalonyl-CoA to succinyl-CoA. […]
Methylmalonyl-CoA mutase assay. […] After centrifugation, 100 μl of the supernatant was analyzed by HPLC to quantify conversion of methylmalonyl-CoA to succinyl-CoA.

[5] = substrate: C[C@H](C(=O)O)C(=O)SCCNC(=O)CCNC(=O)[C@H](O)C(C)(C)COP(=O)(O)OP(=O)(O)OC[C@H]1O[C@@H](n2cnc3c(N)ncnc32)[C@H](O)[C@@H]1OP(=O)(O)O; test: Methylmalonyl-CoA epimerase steady state kinetics (transcarboxylase/malate dehydrogenase coupled assay, A340); format: biochemical, Streptomyces coelicolor; conditions: other: 30° C, pH 6.9, (2RS)-methylmalonyl-CoA 27 μM to 160 μM, (2R) concentration assumed one-half of (2RS), epimerase activated with CoCl2
Protocol: (§1) Methylmalonyl-CoA epimerase assay. Enzyme activity was assayed at 30° C. using a modification of a reported method (27). The epimerase (0.54 mg/ml) was first activated with 100 μM CoCl2 at 4° C. for 1 h. Reaction mixtures (1.5 mL) contained 0.2 M potassium phosphate buffer pH 6.9, 0.1 M NH4SO4, 5 mM Na pyruvate, 0.08 mM (2RS)-methylmalonyl-CoA, 0.05 units transcarboxylase, 0.16 mM NADH, and 2.5 units of malate dehydrogenase. The reaction was initiated with (2RS)-methylmalonyl-CoA, and the decrease in A340 concomitant with consumption of the S-isomer was allowed to stabilize. Limiting epimerase was added to catalyze conversion of the remaining R- to S-isomer, and the initial rate and total decrease in A340 were monitored. For kinetic studies, -1.2 nM epimerase was incubated with varying amounts of (2RS)-methylmalonyl-CoA (27 μM to 160 μM). The (2R)-methylmalonyl-CoA concentrations were assumed to be one-half of the concentration of (2RS)-methylmalonyl-CoA.
S. coelicolor methylmalonyl-CoA epimerase gene. The P. shermanii methylmalonyl-CoA epimerase DNA sequence was used to search the S. coelicolor genomic database (www.sanger.ac.uk/Projects/S coelicolor) using the BLAST programs at the National Center for Biotechnology Information, NIH website (37), and S. coelicolor gene 8F4.02c was identified as a putative methylmalonyl-CoA epimerase. […]

[6] = substrate: C[C@H](C(=O)O)C(=O)SCCNC(=O)CCNC(=O)[C@H](O)C(C)(C)COP(=O)(O)OP(=O)(O)OC[C@H]1O[C@@H](n2cnc3c(N)ncnc32)[C@H](O)[C@@H]1OP(=O)(O)O; test: as above; format: biochemical, Propionibacterium freudenreichii subsp. shermanii; conditions: other: 30° C, pH 6.9, (2RS)-methylmalonyl-CoA 27 μM to 160 μM, (2R) concentration assumed one-half of (2RS), epimerase activated with CoCl2
Protocol: as §1
Heterologous expression and purification of the epimerases. E. coli BL21(DE3) harboring either pKOS143-28-8 (P. shermanii epimerase) or pKOS117-174-A37 (S. coelicolor epimerase) was grown in 750 ml LB (100 μg/ml carbenicillin) at 37° C. until late log phase, then induced with IPTG to 1 mM final concentration and grown for an additional 3 h at 30° C. The cells were collected by centrifugation, and the pellets were stored at −80° C. […]

- hydrolyzed to CoA [1]: comparable rate
Molecule: CC(C)(COP(=O)(O)OP(=O)(O)OC[C@H]1O[C@@H](n2cnc3c(N)ncnc32)[C@H](O)[C@@H]1OP(=O)(O)O)[C@@H](O)C(=O)NCCC(=O)NCCSC(=O)CCC(=O)O [succinyl-CoA]

- hydrolyzed to CoA [1]: about 4%
- spontaneous chemical epimerization [2]: approximately 3%
Molecule: CC(C(=O)O)C(=O)SCCNC(=O)CCNC(=O)[C@H](O)C(C)(C)COP(=O)(O)OP(=O)(O)OC[C@H]1O[C@@H](n2cnc3c(N)ncnc32)[C@H](O)[C@@H]1OP(=O)(O)O (stereo partly drawn) [methylmalonyl-CoA]

Molecule: C[C@@H](C(=O)O)C(=O)SCCNC(=O)CCNC(=O)[C@H](O)C(C)(C)COP(=O)(O)OP(=O)(O)OC[C@H]1O[C@@H](n2cnc3c(N)ncnc32)[C@H](O)[C@@H]1OP(=O)(O)O [(2S)-methylmalonyl-CoA]
- Km [3]: ~25 µM

B1: mutase: methylmalonyl-CoA mutase (EC 5.4.99.2) from P. shermanii, expressed in E. coli (protein, UniProt P11652 2-638; P11653 2-728, looked up)
Methylmalonyl-CoA mutase … 1: SSTDQGTNPADTDDLTPTTLSLAGDFPKATEEQWEREVEKVLNRGRPPEKQLTFAECLKRLTVHTVDGIDIVPMYRPKDAPKKLGYPGVAPFTRGTTVRNGDMDAWDVRALHEDPDEKFTRKAILEGLERGVTSLLLRVDPDAIAPEHLDEVLSDVLLEMTKVEVFSRYDQGAAAEALVSVYERSDKPAKDLALNLGLDPIAFAALQGTEPDLTVLGDWVRRLAKFSPDSRAVTIDANIYHNAGAGDVAELAWALATGAEYVRALVEQGFTATEAFDTINFRVTATHDQFLTIARLRALREAWARIGEVFGVDEDKRGARQNAITSWRDVTREDPYVNILRGSIATFSASVGGAESITTLPFTQALGLPEDDFPLRIARNTGIVLAEEVNIGRVNDPAGGSYYVESLTRSLADAAWKEFQEVEKLGGMSKAVMTEHVTKVLDACNAERAKRLANRKQPITAVSEFPMIGARSIETKPFPAAPARKGLAWHRDSEVFEQLMDRSTSVSERPKVFLACLGTRRDFGGREGFSSPVWHIAGIDTPQVEGGTTAEIVEAFKKSGAQVADLCSSAKVYAQQGLEVAKALKAAGAKALYLSGAFKEFGDDAAEAEKLIDGRLFMGMDVVDTLSSTLDILGVAK
Methylmalonyl-CoA mutase … 2: STLPRFDSVDLGNAPVPADAARRFEELAAKAGTGEAWETAEQIPVGTLFNEDVYKDMDWLDTYAGIPPFVHGPYATMYAFRPWTIRQYAGFSTAKESNAFYRRNLAAGQKGLSVAFDLPTHRGYDSDNPRVAGDVGMAGVAIDSIYDMRELFAGIPLDQMSVSMTMNGAVLPILALYVVTAEEQGVKPEQLAGTIQNDILKEFMVRNTYIYPPQPSMRIISEIFAYTSANMPKWNSISISGYHMQEAGATADIEMAYTLADGVDYIRAGESVGLNVDQFAPRLSFFWGIGMNFFMEVAKLRAARMLWAKLVHQFGPKNPKSMSLRTHSQTSGWSLTAQDVYNNVVRTCIEAMAATQGHTQSLHTNSLDEAIALPTDFSARIARNTQLFLQQESGTTRVIDPWSGSAYVEELTWDLARKAWGHIQEVEKVGGMAKAIEKGIPKMRIEEAAARTQARIDSGRQPLIGVNKYRLEHEPPLDVLKVDNSTVLAEQKAKLVKLRAERDPEKVKAALDKITWAAGNPDDKDPDRNLLKLCIDAGRAMATVGEMSDALEKVFGRYTAQIRTISGVYSKEVKNTPEVEEARELVEEFEQAEGRRPRILLAKMGQDGHDRGQKVIATAYADLGFDVDVGPLFQTPEETARQAVEADVHVVGVSSLAGGHLTLVPALRKELDKLGRPDILITVGGVIPEQDFDELRKDGAVEIYTPGTVIPESAISLVKKLRASLDA
- mutase activity [4]: no mutase activity was observed; also recorded: undetectable

B2: Streptomyces coelicolor methylmalonyl-CoA epimerase, wild type, recombinant (gene 8F4.02c) (Streptomyces coelicolor A3(2)) (protein)
chain: MLTRIDHIGIACHDLDATVEFYRATYGFEVFHTEVNEEQGVREAMLKINDTSDGGASYLQLLEPTREDSAVGKWLAKNGEGVHHIAFGTADVDADAADIRDKGVRVLYDEPRRGSMGSRITFLHPKDCHGVLTELVTSAAVESPEH
notes: (2RS)-methylmalonyl-CoA substrate
- Km [5]: 57 µM
- kcat [5]: 75 s⁻¹

B3: Propionibacterium shermanii methylmalonyl-CoA epimerase (EC 5.1.99.1), wild type, recombinant, GenBank AY046899 (Propionibacterium freudenreichii subsp. … (protein)
chain: MSNEDLFICIDHVAYACPDADEASKYYQETFGWHELHREENPEQGVVEIMMAPAAKLTEHMTQVQVMAPLNDESTVAKWLAKHNGRAGLHHMAWRVDDIDAVSATLRERGVQLLYDEPKLGTGGNRINFMHPKSGKGVLIELTQYPKN
- Km [6]: 38 µM
- kcat [6]: 150 s⁻¹
